Source: patent publication US20190015519A1, “MMP-SENSITIVE TAXANE PRODRUG” (Incanthera Ltd, priority 2015, published 2019)
Values joined by “and” are separate entries in the source; they are usually repeats but may differ in a detail not shown here. Equal values may be shown once. “Also recorded” adds a separate entry of the source.

How the values were obtained:
[1] = biological target: MMP14 (Homo sapiens, UniProt P50281); assay: Cleavage by recombinant MMP14 in vitro (HPLC traces, mass spectrometry); format: biochemical; conditions: over 18 h
[2] = biological target: MMP 15 (Homo sapiens, UniProt P51511); assay: Cleavage by recombinant MMP15 in vitro (HPLC traces); format: biochemical; conditions: over 18 h
[3] = tested on: prostate tumour-associated MT-MMPs; assay: Incubation in tissue culture media containing prostate tumour cells; format: cell-based; conditions: incubation at 20 um in tissue culture media with cells; compared to other agents tested
[4] = Incubation with PC3 tumour homogenate (tumour activation); format: in vitro ADME
Excerpt: A paclitaxel (Taxol) standard is shown in the top trace,
(§1) The relative importance of individual amino acids within the MT-MMP peptide recognition sequence has been investigated following extensive ex vivo metabolic studies. These studies employed tissue homogenates to assess activation of prodrug conjugates in tumour (PC-3) tissues and stability in normal tissues (liver kidney lung).

[5] = Metabolism in LNCaP prostate cancer cell line; format: in vitro ADME
[6] = Incubation with normal tissue homogenates (normal tissue stability); format: in vitro ADME
Experimental: Parent molecules are incubated with tissue homogenate and half lives calculated Green indicates acceptable whereas red is unacceptable.
as §1

[7] = In vivo murine pharmacokinetic study monitoring paclitaxel release in tumour, tissues and plasma
Excerpt: The early peak drug concentrations associated with paclitaxel dosing are removed by administration of prodrug. A 10-fold increase in tumour concentration of paclitaxel is observed following administration as ICT3205.
FIG. 21 provides a table highlighting in greater detail the disparity of distribution between normal tissues and tumour tissues for paclitaxel alone, parent ICT3205 and paclitaxel release from the prodrug.

[8] = tested on: PC3 xenografts; assay: Anti-tumour efficacy study in PC3 xenografts; format: in vivo, mouse; conditions: PC3-bearing mice; single dose; ICT3205 20 mg/kg, paclitaxel 7 mg/kg (molar equivalent)
[9] = Systemic toxicity by mouse body weight; format: in vivo; conditions: mice
[10] = ALL Taxol Compounds (1uM) PC3 Vs Liver Vs HT1080 Metabolism
Experimental: Table printed on a drawing sheet, Fig. 7 (Cont.)
Title: ALL Taxol Compounds (1uM) PC3 Vs Liver Vs HT1080 Metabolism
(§2) Footnotes: [diagonal hatching] Tumour (51-100%) / Liver (0-15%) / [horizontal hatching] Tumour & Liver (26-50%) / [cross hatching] Tumour (0-25%) / Liver (51-100%)
First reader's note: Continuation of Fig. 7; cell hatching classifies the values per the legend, and the title states 1uM while the head row states 1mM.

[11] = ALL Taxol Compounds (10uM) PC3 Vs Liver Vs HT1080 Metabolism
Experimental: Table printed on a drawing sheet, Fig. 8 (Cont.)
Title: ALL Taxol Compounds (10uM) PC3 Vs Liver Vs HT1080 Metabolism
as §2
First reader's note: Continuation of Fig. 8; the title prints 10uM while the head row prints 10mM, and cell hatching marks the classes given in the legend.

[12] = Top 3 Taxol Compounds (20uM) PC3 Vs LNCaP (x2) Vs PNT2 Cell-based assay
Experimental: Table printed on a drawing sheet, Fig. 9 (Cont.)
Title: Top 3 Taxol Compounds (20uM) PC3 Vs LNCaP (x2) Vs PNT2 Cell-based assay
Footnotes: [diagonal hatching] Tumour (51-100%) / Non-Tumour (0-15%) / [horizontal hatching] Tumour & Non-Tumour (26-50%) / [cross hatching] Tumour (0-25%) / Non-Tumour (51-100%)
First reader's note: Continuation of Fig. 9; cell shading (hatching) classifies the values by the legend, and all compounds were tested at 20uM in cell culture.

[13] = ALL Taxol Compounds (1uM) (ALL Tissue Metabolism)
Experimental: Table printed on a drawing sheet, Fig. 11
Title: ALL Taxol Compounds (1uM) (ALL Tissue Metabolism)
Footnotes: Tumour (51-100%) / Liver (0-15%) / Tumour & Liver (26-50%) / Tumour (0-25%) / Liver (51-100%)
First reader's note: Cell hatching codes the classes given in the legend; all compounds tested at 1uM in tissue homogenates.

[14] = PK study (PC3) ICT3205 - 15mg/kg (5mg/kg taxol) IP Almost undetectable concentrations of ICT3205 in tumour
Experimental: Table printed on a drawing sheet, Fig. 21
Title: PK study (PC3) ICT3205 - 15mg/kg (5mg/kg taxol) IP Almost undetectable concentrations of ICT3205 in tumour
Footnotes: Tumour AUC ↑ x10-fold Tumour Cmax ↑ x10-fold } For ACTIVE Taxol / ALSO Tissue AUC ↓ Tissue Cmax ↓ x10-fold } For ACTIVE Taxol
The patent's description of the figure: FIG. 21 provides a table highlighting in greater detail the disparity of distribution between normal tissues and tumour tissues for paclitaxel alone, parent ICT3205 and paclitaxel release from the prodrug.
First reader's note: The ratio cells span the three analyte rows of each tissue and are repeated in each row; the first PC3 row is printed as 'ICT2305' (boxed) and has its own empty Cmax Ratio cell.

Chain of MMP 15 (P51511 132-669): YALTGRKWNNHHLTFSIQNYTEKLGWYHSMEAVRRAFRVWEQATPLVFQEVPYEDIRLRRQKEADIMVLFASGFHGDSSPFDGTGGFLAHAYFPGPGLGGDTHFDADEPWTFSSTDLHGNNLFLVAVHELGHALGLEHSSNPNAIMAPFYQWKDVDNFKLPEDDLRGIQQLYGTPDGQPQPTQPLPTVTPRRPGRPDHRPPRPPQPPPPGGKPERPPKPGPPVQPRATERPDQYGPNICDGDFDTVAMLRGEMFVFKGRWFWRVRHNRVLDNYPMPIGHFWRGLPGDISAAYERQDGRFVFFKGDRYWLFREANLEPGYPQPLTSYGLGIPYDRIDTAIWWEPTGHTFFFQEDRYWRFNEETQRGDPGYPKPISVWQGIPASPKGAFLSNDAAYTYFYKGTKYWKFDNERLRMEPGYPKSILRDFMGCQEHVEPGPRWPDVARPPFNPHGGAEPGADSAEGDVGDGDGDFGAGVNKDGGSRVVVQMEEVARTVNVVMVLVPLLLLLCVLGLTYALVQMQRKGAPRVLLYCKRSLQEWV

## CC(=O)O[C@H]1C(=O)[C@@]2(C)C([C@H](OC(=O)c3ccccc3)[C@]3(O)C[C@H](OC(=O)[C@H](OC(=O)OCc4ccc(NC(=O)[C@H](CC(C)C)NC(=O)[C@H](Cc5ccc(O)cc5)NC(=O)[C@H](CCc5ccccc5)NC(=O)CNC(=O)[C@H](CCCNC(N)=O)NC(=O)[C@H](CO)NC(=O)[C@H](CCCNC(=N)N)NC(=O)CCNC(=S)Nc5ccc6c(c5)C(=O)OC65c6ccc(O)cc6Oc6cc(O)ccc65)cc4)[C@@H](NC(=O)c4ccccc4)c4ccccc4)C(C)=C1C3(C)C)[C@]1(OC(C)=O)CO[C@@H]1C[C@@H]2O (some centres unmarked) [ICT3205]
[1]
  cleavage by recombinant MMP14: cleavage
[2]
  cleavage by recombinant MMP 15: cleavage
[3]
  cleavage by prostate tumour-associated MT-MMPs and release of paclitaxel: superior cleavage
[4]; PC3 prostate cancer cell line homogenate
  metabolism (disappearance, activation) of conjugate in PC3: disappearance; also recorded: metabolised equally quickly; also recorded: metabolised rapidly
[4]; PC3 tumour homogenate
  paclitaxel release in PC3 tumour: differential release of free paclitaxel; also recorded: appearance of paclitaxel
[5]
  metabolism of conjugate in LNCaP: metabolised equally quickly
[6]; kidney and liver, over other molecules
  stability in kidney and liver homogenates: marked increased stability
[6]; liver homogenate
  appearance of paclitaxel in liver homogenate: not in the liver
  conjugate stability in liver homogenate: relative stability
[6]; liver, kidney, lung
  stability in normal tissue homogenates: stable; also recorded: long in vitro ‘half-life’ and stability
[7]; heart
  levels of paclitaxel released from ICT3205 in heart: < 500 nM
[7]; normal tissues, AUC in uM.h, ICT3205 20 mg/kg vs paclitaxel 7 mg/kg
  AUC ratio of paclitaxel released from ICT3205 compared to paclitaxel administered alone, normal tissues: 0.05-0.99
[7]; other tissues, ICT3205 20 mg/kg vs paclitaxel 7 mg/kg
  Cmax ratio of paclitaxel released from ICT3205 vs paclitaxel alone, other tissues: 0.02-0.19
[7]; plasma
  levels of paclitaxel released from ICT3205 in plasma: below detectable levels
[7]; tumour, AUC in uM.h, ICT3205 20 mg/kg vs paclitaxel 7 mg/kg
  AUC ratio of paclitaxel released from ICT3205 compared to paclitaxel administered alone, tumour: 16.2
[7]; tumour, ICT3205 20 mg/kg vs paclitaxel 7 mg/kg
  Cmax ratio of paclitaxel released from ICT3205 vs paclitaxel alone, tumour: 9.77
[7]; tumour, versus equimolar paclitaxel alone
  increase in tumour concentration of paclitaxel following administration as ICT3205: 10 fold
[8]
  anti-tumour effect (growth delay): highly significant growth delay; also recorded: superior anti-tumour effects
[9]
  toxicity and adverse systemic effects as indicated by mouse body weight: no toxicity and no adverse systemic effects
[10]
  Tissue Homogenate Metabolism (1 µM) | HT1080 Stability (% loss): 60 % loss
  Tissue Homogenate Metabolism (1 µM) | HT1080 Taxol Release (% gain): 58 % gain
  Tissue Homogenate Metabolism (1 µM) | Liver Stability (% loss): 12 % loss
  Tissue Homogenate Metabolism (1 µM) | Liver Taxol Release (% gain): 19 % gain
  Tissue Homogenate Metabolism (1 µM) | PC3 Stability (% loss): 77 % loss
  Tissue Homogenate Metabolism (1 µM) | PC3 Taxol Release (% gain): 85 % gain
[11]
  Tissue Homogenate Metabolism (10 µM) | HT1080 Stability (% loss): 48 % loss
  Tissue Homogenate Metabolism (10 µM) | HT1080 Taxol Release (% gain): 55 % gain
  Tissue Homogenate Metabolism (10 µM) | Liver Stability (% loss): 12 % loss
  Tissue Homogenate Metabolism (10 µM) | Liver Taxol Release (% gain): 21 % gain
  Tissue Homogenate Metabolism (10 µM) | PC3 Stability (% loss): 54 % loss
  Tissue Homogenate Metabolism (10 µM) | PC3 Taxol Release (% gain): 60 % gain
[12]
  Cell Culture Metabolism (20uM) | LNCaP (2) Taxol Release (% gain): 81 % gain
  Cell Culture Metabolism (20uM) | LNCaP Stability (% loss): 100 % loss
  Cell Culture Metabolism (20uM) | LNCaP Taxol Release (% gain): 73 % gain
  Cell Culture Metabolism (20uM) | PC3 Stability (% loss): 84 % loss
  Cell Culture Metabolism (20uM) | PC3 Taxol Release (% gain): 49 % gain
  Cell Culture Metabolism (20uM) | PNT2 Stability (% loss): 21 % loss
  Cell Culture Metabolism (20uM) | PNT2 Taxol Release (% gain): 12 % gain
[13]
  Tissue Homogenate Metabolism (1uM) | Kidney Stability (% loss): 4 % loss
  Tissue Homogenate Metabolism (1uM) | Kidney Taxol Release (% gain): 4 % gain
  Tissue Homogenate Metabolism (1uM) | Lung Stability (% loss): 19 % loss
  Tissue Homogenate Metabolism (1uM) | Lung Taxol Release (% gain): 12 % gain
[14]
  Tmax: 4 h and 2 h

## MeO (PEG) [ICT3200]
[10]
  Tissue Homogenate Metabolism (1 µM) | HT1080 Stability (% loss): 72 % loss
  Tissue Homogenate Metabolism (1 µM) | HT1080 Taxol Release (% gain): 29 % gain
  Tissue Homogenate Metabolism (1 µM) | Liver Stability (% loss): 5 % loss
  Tissue Homogenate Metabolism (1 µM) | Liver Taxol Release (% gain): 5 % gain
  Tissue Homogenate Metabolism (1 µM) | PC3 Stability (% loss): 82 % loss
  Tissue Homogenate Metabolism (1 µM) | PC3 Taxol Release (% gain): 36 % gain
[11]
  Tissue Homogenate Metabolism (10 µM) | HT1080 Stability (% loss): 61 % loss
  Tissue Homogenate Metabolism (10 µM) | HT1080 Taxol Release (% gain): 30 % gain
  Tissue Homogenate Metabolism (10 µM) | Liver Stability (% loss): 0 % loss
  Tissue Homogenate Metabolism (10 µM) | Liver Taxol Release (% gain): 8 % gain
  Tissue Homogenate Metabolism (10 µM) | PC3 Stability (% loss): 80 % loss
  Tissue Homogenate Metabolism (10 µM) | PC3 Taxol Release (% gain): 36 % gain
[12]
  Cell Culture Metabolism (20uM) | LNCaP (2) Stability (% loss): 62 % loss
  Cell Culture Metabolism (20uM) | LNCaP (2) Taxol Release (% gain): 51 % gain
  Cell Culture Metabolism (20uM) | LNCaP Stability (% loss): 61 % loss
  Cell Culture Metabolism (20uM) | LNCaP Taxol Release (% gain): 62 % gain
  Cell Culture Metabolism (20uM) | PC3 Stability (% loss): 89 % loss
  Cell Culture Metabolism (20uM) | PC3 Taxol Release (% gain): 49 % gain
  Cell Culture Metabolism (20uM) | PNT2 Stability (% loss): 60 % loss
  Cell Culture Metabolism (20uM) | PNT2 Taxol Release (% gain): 22 % gain
[13]
  Tissue Homogenate Metabolism (1uM) | Kidney Stability (% loss): 32 % loss
  Tissue Homogenate Metabolism (1uM) | Kidney Taxol Release (% gain): 25 % gain
  Tissue Homogenate Metabolism (1uM) | Lung Stability (% loss): 64 % loss
  Tissue Homogenate Metabolism (1uM) | Lung Taxol Release (% gain): 31 % gain

## CC(=O)O[C@H]1C(=O)[C@@]2(C)[C@H]([C@H](OC(=O)c3ccccc3)[C@]3(O)C[C@H](OC(=O)[C@H](O)[C@@H](NC(=O)c4ccccc4)c4ccccc4)C(C)=C1C3(C)C)[C@]1(OC(C)=O)CO[C@@H]1C[C@@H]2O [paclitaxel, Paclitaxel, reference compound]
[8]
  anti-tumour effect (growth delay): no significant anti-tumour effect; also recorded: no efficacy
